# Experimental data reported in patent publication US8501696 (dated 2013).
# B1: wild type sgp130Fc (Fc fusion)
# chain: ELLDPCGYISPESPVVQLHSNFTAVCVLKEKCMDYFHVNANYIVWKTNHFTIPKEQYTIINRTASSVTFTDIASLNIQLTCNILTFGQLEQNVYGITIISGLPPEKPKNLSCIVNEGKKMRCEWDGGRETHLETNFTLKSEWATHKFADCKAKRDTPTSCTVDYSTVYFVNIEVWVEAENALGKVTSDHINFDPVYKVKPNPPHNLSVINSEELSSILKLTWTNPSIKSVIILKYNIQYRTKDASTWSQIPPEDTASTRSSFTVQDLKPFTEYVFRIRCMKEDGKGYWSDWSEEASGITYEDRPSKAPSFWYKIDPSHTQGYRTVQLVWKTLPPFEANGKILDYEVTLTRWKSHLQNYTVNATKLTVNLTNDRYLATLTVRNLVGKSDAAVLTIPACDFQATHPVMDLKAFPKDNMLWVEWTTPRESVKKYILEWCVLSDKAPCITDWQQEDGTVHRTYLRGNLAESKCYLITVTPVYADGPGSPESIKAYLKQAPPSKGPTVRTKKVGKNEAVLEWDQLPVDVQNGFIRNYTIFYRTIIGNETAVNVDSSHTEYTLSSLTSDTLYMVRMAAYTDEGGKDGPEFTFTTPKFAQGEIE
# Molecular target: Hyper-IL-6 (designer cytokine consisting of covalently linked IL-6 and sIL-6R) (human, UniProt P08887 20-323; P05231 30-212)
# Assay: SPR
# Sequence of Hyper-IL-6 (designer cytokine consisting of covalently linked IL-6 and sIL-6R) (P08887 20-323, chain 1 of 2): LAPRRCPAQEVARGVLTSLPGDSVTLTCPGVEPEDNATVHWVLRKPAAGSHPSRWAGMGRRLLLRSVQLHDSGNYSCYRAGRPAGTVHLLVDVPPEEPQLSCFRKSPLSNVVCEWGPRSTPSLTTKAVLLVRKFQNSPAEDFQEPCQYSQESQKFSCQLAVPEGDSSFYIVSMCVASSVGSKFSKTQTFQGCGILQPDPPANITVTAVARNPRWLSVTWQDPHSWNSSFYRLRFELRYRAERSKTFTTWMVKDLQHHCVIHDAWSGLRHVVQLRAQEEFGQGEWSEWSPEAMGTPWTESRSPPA
# Sequence of Hyper-IL-6 (designer cytokine consisting of covalently linked IL-6 and sIL-6R) (P05231 30-212, chain 2 of 2): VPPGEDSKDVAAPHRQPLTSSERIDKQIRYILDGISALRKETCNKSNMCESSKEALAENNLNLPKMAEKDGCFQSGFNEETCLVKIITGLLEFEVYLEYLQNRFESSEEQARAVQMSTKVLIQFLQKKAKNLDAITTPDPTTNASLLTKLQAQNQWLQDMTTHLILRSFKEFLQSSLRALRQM
binder,measurement,value
B1,Kd,0.499 nM
